Data set [1] addresses human Granzyme B (hGranzyme B) (Homo sapiens, UniProt P10144). In words: Surface plasmon resonance (SPR) binding kinetics to hGranzyme B. As to conditions: 25° C., 1:1 binding model, KD=kd/ka; read-out: Granzyme B SPR Kd. The essentials: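 Biotinylated hGranzyme B captured on streptavidin chip (~1100 RU), reference-spot subtracted. Single-cycle kinetics at 25 °C in HBS-EP+ with 2% DMSO: five 3-fold peptide concentrations, 0.01–1 µM, 120 s association, 900 s dissociation. Fit to a 1:1 model for ka and kd, with KD = kd/ka.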

For data set [2], the target named is T1, Human Granzyme B (Homo sapiens, UniProt P10144). The data set is described as follows: Granzyme B biochemical inhibition assay (fluorescence). The settings on record: 8 nM granzyme B; values below 8 nM reported as <8 nM. As to the method:
Compounds to be tested as inhibitors were manually prepared in a 2-fold serial dilutions in DMSO, spanning 200 uM to 0.39 uM in a Labcyte Echo qualified low dead volume 384-well plate. Then an ECHO acoustic liquid handler was used to dispense 125 nL of each compound from 384-well plate into a PerkinElmer Proxiplate-384 Plus F assay plate. For the positive control of inhibitor, (S)-3-((3S,6S)-3-((2S,3S)-2-acetamido-3-methylpentanamido)-4-oxo-1,2,3,4,6,7-hexahydroazepino[3,2,1-hi]indole-6-carboxamido)-4-oxobutanoic acid (see C. A. Willoughby et al./Bioorg. Med. Chem. Lett. 12 (2002) 2197-2200 2199) was used at 2 uM assay concentration. For no inhibition control, DMSO was used. Each compound was run in duplicate.
Once the compounds were dispensed in the plates, enzyme mix and substrate mix were prepared. Enzyme mix was prepared by preparing a mixture of 300 uL granzyme B (final concentration 8 nM) and 10.8 mL of assay buffer (from Sigma kit). Substrate mix was prepared by combining 500 uL substrate (from Sigma kit) and 3 mL of assay buffer (from Sigma kit). Enzyme mixture was loaded on BioRaptr and 9.25 uL were added to each well of the assay plate containing compounds. The plate was incubated at room temperature under a metal gasket cover for 30 minutes. Subsequently, 3.125 uL of substrate mix were added to each well using the BioRaptr, reaching a final assay volume of 12.5 uL, and the plate was monitored using a Pherastar FS by 1 read per minute for 30 minutes in fluorescence mode, excitation wavelength is 400 nm and emission wavelength is 510 nm.
The data analysis was performed first in excel, where the slopes of the measured fluorescence from each sample were determined using MARS software from BMG LABTECH. These rates were then multiplied by 10,000 for visualization purposes. The rates, multiplied by 10,000, were normalized to 0% and 100% activity based on the average values of the samples with either 2 uM inhibitor (S)-3-((3S,6S)-3-((2S,3S)-2-acetamido-3-methylpentanamido)-4-oxo-1,2,3,4,6,7-hexahydroazepino[3,2,1-hi]indole-6-carboxamido)-4-oxobutanoic acid, or no inhibitor respectively. All samples were then normalized against these values using the formula={100−[(sample−100% inhib)/0% inhib]}*100 to achieve a normalized percent inhibition. Normalized percent inhibition versus concentration inhibitor was then plotted in Graphpad Prism version 9.0.0 and a variable slope (four parameters) fit was calculated for each inhibitor.

For data set [3] the following is noted: rhesus monkey, in vivo.
Procedure: Healthy non-human primate: A 3 h dynamic PET/CT scan was performed in a healthy male rhesus monkey to determine whole body biodistribution and clearance properties in an additional species. Approximately 6 mCi of ^18F-labeled anti-granzyme-B peptide was intravenously injected in the animal. Attenuation correction was performed using low-dose CT scan. Regions of interests (ROI) were manually drawn over tissues of interest to determine mean standardized uptake value (SUVmean).
The target of data set [4] is T1, Human Granzyme B. It counts as in vivo. More on the design: Ten million human peripheral blood mononuclear cell (PBMC) were engrafted in immunocompromised NOG (NOD/Shi-scid/IL-2Rγ) mice; endogenous in cells; host or cells: human PBMC (donor-derived) engrafted in NOG mice. As to the method: Diseased model: Graft versus host disease (GvHD) model was selected to evaluate radiolabeled granzyme-B peptides due to presence of human granzyme-B after onset of disease. Ten million human peripheral blood mononuclear cell (PBMC) were engrafted in immunocompromised NOG (NOD/Shi-scid/IL-2Rγ) mice. Body weight was monitored routinely, once the mice started to lose weight (indication of onset of disease), PET/CT scans were performed. To determine target specificity, NOG mice without human PBMC were used as control. […] Mice were intravenously injected with approximately 150 uCi (35 Ci/mmol) of ^18F-labeled peptides and 45-minute whole body static PET/CT scans were performed 1 h after injection. Attenuation correction was performed using low-dose CT scan.

Data set [5] addresses T2, human Granzyme B (human, UniProt P10144 21-247). The data set is described as follows: cell-based or functional assay.
The target in data set [6] is T2, human Granzyme B. The data set is described as follows: SPR, Biacore 8k+, hGranzyme B captured on SA chip, single cycle kinetics, 1:1 model; Compound 25a, observed m/z 905.8. As to the method: The kinetics of test peptide binding to human Granzyme B (hGranzyme B) was determined by SPR. All experiments were performed at 25° C. using the Biacore 8k+ instrument (Cytiva, Marlborough, MA). The Biacore 8k+ Insight Evaluation Software Version 3.0 was used to fit the data with a 1:1 binding model to determine the association rate constant kₐ (M⁻¹s⁻¹, where “M” ~equals molar and “s” ~equals seconds) and the dissociation rate constant kd (s⁻¹). These rate constants were used to calculate the equilibrium dissociation constant. KD (M)=kd/kₐ.
To measure the binding kinetics of peptides of interest, surfaces were prepared by a capture method to a Series S Streptavidin (SA) chip using a 1×HBS-EP+ running buffer (Cytiva). hGranzyme B was diluted to 10 μg/mL in IX HBS-EP+ and flowed over spot 2 of each flow cell on the chip at a flow rate of 10 ul/min for 20 s to achieve a level of capture of ~1100 RU. […] Binding kinetics were measured using single cycle kinetics at 25° C. by injecting 5 concentrations with 3-fold serial dilutions of test peptides from 0.01 μM to 1 μM. […]
Peptide dilution series included 2 zero concentration points (no compound) which were averaged and subtracted from the peptide concentration injection as DMSO control responses. […] Corrected response data were analyzed using the Biacore 8k+ Evaluation Software Version 3.0 according to the manufacturer. […]

Numbered stars: 1 amine (or outer) side, 2 acyl side, 3 side chain; on linkers, the order of the positions; unused ones are H or OH. Bridge positions count the residues as written; N and C are the ends. Peptide text beside a SMILES is read from it. I, II: the chains in the order shown. X2 = O=C(CCOCCOCCC(=O)[*:2])[*:1]

T1 sequence (P10144 21-247): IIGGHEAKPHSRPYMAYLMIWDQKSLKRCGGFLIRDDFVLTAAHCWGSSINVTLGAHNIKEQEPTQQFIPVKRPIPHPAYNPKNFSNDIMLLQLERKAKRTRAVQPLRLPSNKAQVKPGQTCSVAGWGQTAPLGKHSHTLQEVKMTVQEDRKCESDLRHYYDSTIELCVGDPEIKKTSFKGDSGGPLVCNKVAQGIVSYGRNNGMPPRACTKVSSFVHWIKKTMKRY
T2 sequence (P10144 21-247 limits assumed): as the sequence (P10144 21-247) above

On to `C[C@@H]1NC(=O)[C@H](CO)NC(=O)[C@H](CCC(N)=O)NC(=O)[C@H](CC(=O)O)NC(=O)[C@H](CCC(=O)O)NC(=O)[C@H](Cc2ccccc2)NC(=O)[C@H](CC(N)=O)NC(=O)[C@H](Cc2ccccc2)NC(=O)CSC[C@@H](C(=O)NCC(=O)NCC(=O)N[C@@H](CCCCNC(=O)CCOCCOCCC(=O)NCCCC[C@H](NC(=O)CNC(=O)CNC(=O)[C@@H]2CSCC(=O)N[C@@H](Cc3ccccc3)C(=O)N[C@@H](CC(N)=O)C(=O)N[C@@H](Cc3ccccc3)C(=O)N[C@@H](CCC(=O)O)C(=O)N[C@@H](CC(=O)O)C(=O)N[C@@H](CCC(N)=O)C(=O)N[C@@H](CO)C(=O)N[C@@H](C)C(=O)N[C@@H](CC(=O)O)C(=O)N[C@@H]([C@@H](C)O)C(=O)N[C@@H](Cc3c[nH]c4ccccc34)C(=O)N[C@@H](CCC(N)=O)C(=O)N3CCC[C@H]3C(=O)N2)C(N)=O)C(N)=O)NC(=O)[C@@H]2CCCN2C(=O)[C@H](CCC(N)=O)NC(=O)[C@H](Cc2c[nH]c3ccccc23)NC(=O)[C@H]([C@@H](C)O)NC(=O)[C@H](CC(=O)O)NC1=O` [Compound 5a, *F.N.F.E.D.Q.S.A.D.T.W.Q.P.*C.G.G.K.NH2)-PEG2-(*F.N.F.E.D.Q.S.A.D.T.W.Q.P.*C.G.G.K.NH2)] (I: {CH2CO}-FNFEDQSADTWQPCGGK-NH2 / II: {CH2CO}-FNFEDQSADTWQPCGGK-NH2; linker I:17-II:17 via X2; thioether I:N-I:14, II:N-II:14), for which the Kd in data set [1] was below 0.3 nM. Further, the 50% inhibitory concentration (IC50) against Human Granzyme B [2] is below 8 nM.

For “*F.N.F.E.D.Q.S.A.D.T.W.Q.P.*C.G.G.K(^18F-AlF-NOTA-1).NH2 [Compound 11a]”, the route of excretion entry in data set [3] is listed as “primarily excreted through renal route”. In addition, in data set [3] (iv), the blood pool clearance entry is listed as “rapid blood pool clearance” and the uptake in kidneys result is given as “high uptake in kidneys within first 20 minutes of injection”. Besides, the “uptake (SUVmean) in lung, liver and bone, GvHD model versus NOG control” value at Human Granzyme B [4] (18F-labeled peptides, i.v., mice, static PET/CT 1 h after injection) was “significantly higher uptake in lung, liver, and bone in GvHD model than NOG control”. For the same molecule, in the data set with Human Granzyme B [4] (in vivo), the “kidney and bladder uptake difference” value was “No significant difference was observed between the kidney and bladder”; the “primary tissue of excretion” value is listed as “kidney was the primary tissue through which the peptide was excreted”.

Turning to `C[C@@H](O)[C@@H]1NC(=O)[C@H](CC(=O)O)NC(=O)[C@@H]2C[C@@H](F)CN2C(=O)[C@H](CO)NC(=O)[C@H](CCC(N)=O)NC(=O)[C@H](CC(=O)O)NC(=O)[C@H](CCC(=O)O)NC(=O)[C@H](Cc2ccccc2)NC(=O)[C@H](CC(N)=O)NC(=O)[C@H](Cc2ccccc2)NC(=O)CSC[C@@H](C(=O)NCC(=O)NCC(=O)N[C@@H](CCCCNC(=S)Nc2ccc(CC3CN(CC(=O)O)CCN(CC(=O)O)CCN3CC(=O)O)cc2)C(N)=O)NC(=O)[C@@H]2CCCN2C(=O)[C@H](CCC(N)=O)NC(=O)[C@H](Cc2c[nH]c3ccccc23)NC1=O` (some centres unmarked) [Compound 19a, *F.N.F.E.D.Q.S.Prot4F.D.T.W.Q.P.*C.G.G.K(^68Ga-NOTA-1).NH2, metal not drawn], in data set [3], the route of clearance entry is recorded as “primarily cleared through renal excretion”; the “tissues of highest uptake” value was “highest uptake observed in urine/urinary bladder and kidney”.

Take `C[C@@H](O)[C@@H]1NC(=O)[C@H](CC(=O)O)NC(=O)[C@@H]2C[C@@H](F)CN2C(=O)[C@H](CO)NC(=O)[C@H](CCC(N)=O)NC(=O)[C@H](CC(=O)O)NC(=O)[C@H](CCC(=O)O)NC(=O)[C@H](Cc2ccccc2)NC(=O)[C@H](CC(N)=O)NC(=O)[C@H](Cc2ccccc2)NC(=O)CSC[C@@H](C(=O)NCC(=O)NCC(=O)N[C@@H](CCCCNC(=S)Nc2ccc(CC3CN(CC(=O)O)CCN(CC(=O)O)CCN3CC(=O)O)cc2)C(N)=O)NC(=O)[C@@H]2CCCN2C(=O)[C@H](CCC(N)=O)NC(=O)[C@H](Cc2c[nH]c3ccccc23)NC1=O` (single isomer, unassigned) [Compound 12a, *F.N.F.E.D.Q.S.Prot4F.D.T.W.Q.P.*C.G.G.K(NOTA-1).NH2]: the IC50 at Human Granzyme B [2] is below 8 nM.

Turning to `C[C@@H]1NC(=O)[C@H](CO)NC(=O)[C@H](CCC(N)=O)NC(=O)[C@H](CC(=O)O)NC(=O)[C@H](CCC(=O)O)NC(=O)[C@H](Cc2ccccc2)NC(=O)[C@H](CC(N)=O)NC(=O)[C@H](Cc2ccccc2)NC(=O)CSC[C@@H](C(=O)NCC(N)=O)NC(=O)[C@@H]2CCCN2C(=O)[C@H](CCC(N)=O)NC(=O)[C@H](Cc2c[nH]c3ccccc23)NC(=O)[C@H]([C@@H](C)O)NC(=O)[C@H](CC(=O)O)NC1=O` [Compound 1a, *F.N.F.E.D.Q.S.A.D.T.W.Q.P.*C.G.NH2] ({CH2CO}-FNFEDQSADTWQPCG-NH2; thioether N-14), at Human Granzyme B [2], the IC50 was below 8 nM.

B1: Compound 25a (peptide)
peptide: {CH2CO}-FNFEDQSPDTWQPCG-NH2
modifications: thioether N-14
SMILES: C[C@@H](O)[C@@H]1NC(=O)[C@H](CC(=O)O)NC(=O)[C@@H]2CCCN2C(=O)[C@H](CO)NC(=O)[C@H](CCC(N)=O)NC(=O)[C@H](CC(=O)O)NC(=O)[C@H](CCC(=O)O)NC(=O)[C@H](Cc2ccccc2)NC(=O)[C@H](CC(N)=O)NC(=O)[C@H](Cc2ccccc2)NC(=O)CSC[C@@H](C(=O)NCC(N)=O)NC(=O)[C@@H]2CCCN2C(=O)[C@H](CCC(N)=O)NC(=O)[C@H](Cc2c[nH]c3ccccc23)NC1=O
Regarding B1, in the data set with human Granzyme B [5], the “Human Granzyme B IC50 (fluorogenic substrate enzyme inhibition assay)” value was below 8 nM. In the data set with human Granzyme B [6], the affinity, expressed as Kd, was 2.8 nM.
